Reference: the supplement of paper PMC9170038

System: MS2 coat protein
Assay: apparent KD of MS2 coat protein; designed switch direction (-1 OFF switch, 1 ON switch): -1; higher = weaker reporter binding
Outline: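 On Illumina chips, designed RNA switches with common flanks were made by stalled E. coli RNA polymerase. Titrations with SNAP-549-labelled MS2 coat protein, doubling from 0.7 or 1.5 nM to 3 µM, were done with no input, with 200 uM small-molecule ligand, or with an oligonucleotide input. Apparent KD is the median per design over clusters, from curve fits of normalised cluster fluorescence.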

[1] = input ligand: microRNA oligo, concentration not stated
[2] = Eterna round: R95, input ligand: microRNA oligo, concentration not stated
[3] = Eterna round: R95, input ligand: FMN 200 uM
[4] = Eterna round: R95, input ligand: none

Row | Sequence | apparent KD of MS2 coat protein (input ligand: FMN 200 uM) | apparent KD of MS2 coat protein (input ligand: none) | apparent KD of MS2 coat protein [1] | apparent KD of MS2 coat protein [2] | apparent KD of MS2 coat protein [3] | apparent KD of MS2 coat protein [4]
1 | CUUAUGUCAGGAUAUUAGUAGUAAAUAAAUAAAAUUAUUACUGAGAAGGGACAUGAGGAUCACCCAUGUUCCUC [Salish 062 v4] (Eterna round: R97, puzzle: Exclusion 4) | 96 nM | 23.9 nM | – | – | – | –
2 | UAGCAUUGCCUUUGGUAGUGCUUUACAUGAGGAUCACCCAUGUAGGAUAUGGUCGGCUUUGCUGACCAGAAGGACAUGUGUAUU [MOD ENG3 1.04 by JL] (Eterna round: R96, puzzle: Exclusion NG 3) | 130 nM | 80.7 nM | 94.4 nM | – | – | –
3 | UUAAUUACGGUGCUUUAACCUCACAUGAGGAUCACCCAUGUGCAGGAUAUCAGCUCGUUUAGAGCUGAGAAGGGCACUGCACCG [ExNG3/11-A2] (Eterna round: R96, puzzle: Exclusion NG 3) | 13.9 nM | 13.5 nM | 8.87 nM | – | – | –
4 | AGGUGCUUCUGGAGACAUGAGGAUCACCCAUGUCGAGUCAGCGAGGAUAUCGGUAAGGCAUGUGAUGAGAAGGCGCAGACCGAU [Ex NG3 #51] (Eterna round: R96, puzzle: Exclusion NG 3) | 33.7 nM | 26.4 nM | 20.3 nM | – | – | –
5 | AGUAGGAGAGGAUAUACGAAGUCAAAAGACUUCGAUCCUCAACAUGAGGAUCACCCAUGUAGAAGGCUCCUACA [Omei Ex2 BD A1] (Eterna round: R97, puzzle: Exclusion 2) | 166 nM | 154 nM | – | – | – | –
6 | GGUCGGCGAGGAUAUACAUGAGGAUCACCCAUGUGAUAGAUUAUCGCGAAAGCGUAAUGUAGAAGGCGCUGACG [jl-ex3-4.10 jl mod] (Eterna round: R97, puzzle: Exclusion 3) | 1280 nM | 40.7 nM | – | – | – | –
7 | AAGAUUAUUUCAGGAUAUAGAUUGAUGAUCGUACUAGAAGGGAAAACACAGUACAUGAGGAUCACCCAUGUUCAUGUAGUGCCA [Eternabot solution 29] (Eterna round: R96, puzzle: Exclusion NG 1) | 17.2 nM | 17.4 nM | 13.4 nM | – | – | –
8 | ACACUGCGAGGAUAUACAUGAGGAUCACCCAUGUGUCGGCAGGUACGGUAGCACUAGUGUAGAAGGCGCAUUAG [EX3 #40] (Eterna round: R97, puzzle: Exclusion 3) | 17 nM | 15.4 nM | – | – | – | –
9 | GACAUGAGGAUCACCCAUGUAAGGGAUGAACUUCUGGGUAGCUAGGAUAUGGCUACAAAGGUGGACCAGAAGGAGCGUACCCUU [Amaqura] (Eterna round: R96, puzzle: Exclusion NG 3) | 10.6 nM | 28.6 nM | 14.3 nM | – | – | –
10 | UAAAUGUGAGGAUAUUCGAUGAACACGGAGACGUGUUUAUCGGAGAAGGCACAUGAGGAUCACCCAUGUUCCUU [Mat - Exclusion 4 - JL Mod - D5] (Eterna round: R97, puzzle: Exclusion 4) | 216 nM | 24.7 nM | – | – | – | –
11 | UAUAUGUCAGGAUAUCGAUUAGUACGGGAUUCGGUACUGGUUGAGAAGGGACAUGAGGAUCACCCAUGUUUUUC [EX4 #69] (Eterna round: R97, puzzle: Exclusion 4) | 284 nM | 36.5 nM | – | – | – | –
12 | AACCUACAUGAGGAUCACCCAUGUGAGGAUAUAUUGGUAUUGAUGUUAUUUUUUAGAGGUAGAAGGCGCGUGAU [JR_Exc1_Sub022] (Eterna round: R97, puzzle: Exclusion 1) | 15 nM | 14 nM | – | – | – | –
13 | ACGAAGCUUUUUGCUCGUCACAUGAGGAUCACCCAUGUGGGCCCGGGCGCCCGGGCCGACAUCCCACUAGGACAUGU [#2] (Eterna round: R97, puzzle: Sensor, turn-off variant 1) | 104 nM | 122 nM | – | – | – | –
14 | CGUCCUGAUGACAACUUACAUGAGGAUCACCCAUGUGCCUCGCAGGAUAUCCCAGCACGUCGCAAGGAGAAGGGCGACGCGCCA [Ceeninge] (Eterna round: R96, puzzle: Exclusion NG 3) | 18 nM | 19 nM | 13.7 nM | – | – | –
15 | CCGGAAAGGAAGGAUAUGCUAGACGAUAGUCUAGCAGAAGGUCCUACAUGAGGAUCACCCAUGUGGCCUCCCGG [Mat - Exclusion 6 - Eli Mod - D47] (Eterna round: R97, puzzle: Exclusion 6) | 680 nM | 114 nM | – | – | – | –
16 | AAGAACUUAGGAUAUACAUGAGGAUCACCCAUGUAGCUUCACUUGGGCCUGAGCCCGUGUAGAAGGAAGAAAAU [Arge] (Eterna round: R96, puzzle: Exclusion 3) | 68.3 nM | 73.5 nM | 47.6 nM | – | – | –
17 | AAGGUGUUAGGAUAUCGUAGUUUGUGGCAGACGGGAUUUUGCGAGAAGGAACAUGAGGAUCACCCAUGUCGGAU [JR_Exclu4_Sub041] (puzzle: Exclusion 4) | – | – | – | 27.1 nM | – | –
18 | UUUGGCAGAGGAUAUACAUGAGGAUCACCCAUGUAUAAGUGGGAUGCGUGCAAAUACUGUAGAAGGCUGCCUCU [Eternabot (L2) Solution 66] (Eterna round: R97, puzzle: Exclusion 3) | 50.1 nM | 73 nM | – | – | – | –

Row | Sequence | apparent KD of MS2 coat protein (input ligand: FMN 200 uM) | apparent KD of MS2 coat protein (input ligand: none) | apparent KD of MS2 coat protein [1] | apparent KD of MS2 coat protein [2] | apparent KD of MS2 coat protein [3] | apparent KD of MS2 coat protein [4]
19 | UUUUUUGUAGUGAGGAUAUCGUUGAGGAUGUGGAUCGAGAAGGCACAUGAGGAUCACCCAUGUUAGAUGUGGUU [JR_BMOE4_Sub083] (Eterna round: R96, puzzle: Brourd's mod of Exclusion 4) | 363 nM | 166 nM | 134 nM | – | – | –
20 | CUCACGUCAGGAUAUCUACAUUAAAUUGGUAACCAAGCAUGAGAGAAGGGACAUGAGGAUCACCCAUGUAAAAC [Ceisusma] (Eterna round: R97, puzzle: Exclusion 4) | 42.4 nM | 48.7 nM | – | – | – | –
21 | AUCGUGCAGCUUUGCUGUACGAGUACAUGAGGAUCACCCAUGUAGGAUAUGGUACGCUUUGCGUGCUAGAAGGAUAUGCGAUUG [EX ENG3 1.46] (Eterna round: R96, puzzle: Exclusion NG 3) | – | – | 36.5 nM | – | – | –
22 | CUUGUGUAAGGAUAUCGAGUAGAACGCUCGAGUUCUGAGCUCGAGAAGGUACAUGAGGAUCACCCAUGUUAAAA [Atusgete] (puzzle: Exclusion 4) | – | – | – | 42.2 nM | – | –
23 | UAACAAGCUUUAAGAUCCUACAUGAGGAUCACCCAUGUGCUCGUCUUGUAACGUACUGUGACGAAAGUCACGGUACG [JL TOV1 3.16] (Eterna round: R97, puzzle: Sensor, turn-off variant 1) | 236 nM | 231 nM | – | – | – | –
24 | AGUAGAUCUACGCUUGCGUGGAUCUGCAAGGCAGGUGUUACAUGAGGAUCACCCAUGUCCUCAUUUGCUCGUCUUAG [JL turnoff v2 99.07] (puzzle: Sensor v3, turn-off variant 2) | – | – | – | 1100 nM | 358 nM | 332 nM
25 | AAAACGUGAGGAUAUCCAAUAUAUGACAUGAGGAUCACCCAUGUUUCCACUCGUACCUCCGGAGAAGGCACAAUAA [Ex5 #76] (Eterna round: R97, puzzle: Exclusion 5) | 37.6 nM | 56.2 nM | – | – | – | –
26 | GGUUGGCGAGGAUAUACAUGAGGAUCACCCAUGUGGUCCUGUGGCUGAUCUAGCCUAUGUAGAAGGCGCAAAUC [salish99_ex3_r4_013] (Eterna round: R97, puzzle: Exclusion 3) | 311 nM | 139 nM | – | – | – | –
27 | ACAUGAGGAUCACCCAUGUUUGGCUGGUUUUCUCCGGCUGUCGAGGAUAUAGUCCGGUAUCCGCGCUAGAAGGUGAGGGUCGGC [Aenatbe mod 3] (Eterna round: R96, puzzle: Exclusion NG 3) | 12.1 nM | 21.6 nM | 17.6 nM | – | – | –
28 | AGUAACUCAAGAGGAUAUCACAUGAGGAUCACCCAUGUAUAGCGCGCUAUGCUAGUCCUCGUAUUUGAGAAGGUUUGAUAAAUG [JL ViennaUCT Quve mod 2] (Eterna round: R96, puzzle: Exclusion NG 2) | 16.8 nM | 17.2 nM | 13.1 nM | – | – | –
29 | UGCUGACGAGGAUAUACAUGAGGAUCACCCAUGUUGGUCAAGCGACUUCGGUCGCAAUGUAGAAGGCGUCAGCU [E3/8-A6] (Eterna round: R97, puzzle: Exclusion 3) | 186 nM | 395 nM | – | – | – | –
30 | GUAUAACAUGAGGAUCACCCAUGUCAGGAUAUGCGAAUUUCAUCAAAAGAUGAAAUUUGCAGAAGGGACUGUAC [Omei Ex1 A25] (Eterna round: R97, puzzle: Exclusion 1) | 73.9 nM | 67.6 nM | – | – | – | –
31 | CUUUUGUGAGGAUAUUAUUAGUAAAUAAAUAAAAUUACUACUGAGAAGGCACAUGAGGAUCACCCAUGUUCCUC [salish99_ex4_r3_048] (puzzle: Exclusion 4) | – | – | – | 28.8 nM | – | –
32 | GCCAGAGCAGGAUAUUCAGUAUCACACAUGAGGAUCACCCAUGUCCACGGAAACGUGGAGGGAGAAGGGCUCUGGC [Mat - Exclusion 5 - Eli mod - D96] (puzzle: Exclusion 5) | – | – | – | 126 nM | 35.6 nM | 157 nM
33 | UUUUUUGUAGUGAGGAUAUCGUUGAGGAUGUGGAUCGAGAAGGCACAUGAGGAUCACCCAUGUUAGAUGUGGUU [JR_BMOE4_Sub083] (puzzle: Brourd's mod of Exclusion 4) | – | – | – | 173 nM | – | –
34 | GUCUCGUCAGGAUAUGACGCUACAUUUUCUUUUUAGAAGAGUCAGAAGGGACAUGAGGAUCACCCAUGUGAUUC [Ex4 - 3 - 3] (puzzle: Exclusion 4) | – | – | – | 310 nM | – | –
35 | CUAUUCCGAGGAUAUACAUGAGGAUCACCCAUGUCGGGCCUCCGCGUUUCGCGCCUCAGUAGAAGGCGGGUUUC [JL Riri mod 1] (puzzle: Exclusion 3) | – | – | – | 18.3 nM | – | –
